This is an account of results in patent US20190300618A1 (Merck Sharp & Dohme, published 2019).

What all share (assay): flow cytometry, CHO-K1; sub-column 1 of 2
Background: In flow cytometry, cells or beads pass a laser one at a time.

Test [1] concerns the target T1, Q15A.
T1 construct: also called hCD27 Q15A
T1 receptor: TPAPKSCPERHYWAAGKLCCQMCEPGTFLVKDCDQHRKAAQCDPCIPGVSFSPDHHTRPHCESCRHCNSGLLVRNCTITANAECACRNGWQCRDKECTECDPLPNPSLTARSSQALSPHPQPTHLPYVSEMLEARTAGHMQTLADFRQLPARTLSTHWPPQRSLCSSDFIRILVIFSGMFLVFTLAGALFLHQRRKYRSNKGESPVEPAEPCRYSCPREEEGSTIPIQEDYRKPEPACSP

Test [2] addresses T2, G16A.
T2 construct: also called hCD27 G16A
T2 receptor: T1 receptor with A15Q, G16A

Test [3] deals with T3, F28A.
T3 construct: also called hCD27 F28A
T3 receptor: T1 receptor with A15Q, F28A

The target of test [4] is T4, R37A.
T4 construct: also called hCD27 R37A
T4 receptor: T1 receptor with A15Q, R37A

In test [5] the target is T5, Q41A.
T5 construct: also called hCD27 Q41A
T5 receptor: T1 receptor with A15Q, Q41A

Test [6] deals with T6, I46A.
T6 construct: also called hCD27 I46A
T6 receptor: T1 receptor with A15Q, I46A

Test [7] concerns the target T7, H60A.
T7 construct: also called hCD27 H60A
T7 receptor: T1 receptor with A15Q, H60A

Test [8] deals with T8, N88A.
T8 construct: also called hCD27 N88A
T8 receptor: T1 receptor with A15Q, N88A

Test [9] addresses T9, W90A.
T9 construct: also called hCD27 W90A
T9 receptor: T1 receptor with A15Q, W90A

In test [10] the target is T10, R93A.
T10 construct: also called hCD27 R93A
T10 receptor: T1 receptor with A15Q, R93A

Positions count from the first letter of the chain named.

Take 1A4 (mouse IgG1) (antibody): the % of WT hCD27 binding (geo mean FITC) in [1] was 32%; in test [2] it was 90.8%; in test [3], 113%; in test [4], 115%; in [5], 106%; in [6], 129%. Besides, the % of WT hCD27 binding (geo mean FITC) in [7] was 167%; in [8], 154%; in test [9], 123%; in [10], 120%.

With 9F4 (mouse IgG2a) (antibody), the % of WT hCD27 binding (geo mean FITC) in test [1] amounted to 107%; in test [2] it was 94.7%; in [3], 115%; in test [4] it was 35%; in [5] it was 113%; in [6] it was 137%. Moreover, the % of WT hCD27 binding (geo mean FITC) in test [7] came to 185%; in test [8], 153%; in [9] it was 130%; in test [10], 122%.

B1: Antibody hCD27.131A (mouse parental 131A) (antibody, V domains shown)
VH: QIQLVQSGPELKKPGETVKISCKASGYTFTNYGMNWVKQAPGKGLKWMGWINTNTGEPTYAEEFKGRFAFSLETSATTAYLQINNLKNEDTATYFCAREGDAMDYWGQGTSVTVSS
VL: QIVLTQSPAIMSASPGEKVTMTCSASSSVSYMHWYQQKSGTSPKRWIYDTSKLASGVPARFSGSGSGTSYSLTISSMEAEDAATYYCQQWNSYPFTFGSGTKLEIK
notes: mouse IgG1; also called mouse hCD27.131A
With B1, the “% of WT hCD27 binding (geo mean FITC)” value in test [1] amounted to 99.6%; in [2], 94.8%; in test [3] it was 106%; in test [4], 50.3%; in [5], 108%; in [6] it was 132%. Moreover, the “% of WT hCD27 binding (geo mean FITC)” value in test [7] was determined as 178%; in test [8] it was 162%; in [9] it was 126%; in [10] it was 125%.
